The term IC50 denotes the concentration that gives 50% inhibition.

Experimental findings from patent US20110150914A1, “COMPOSITIONS AND METHODS FOR DENGUE VIRUS (DV) TREATMENT AND VACCINATION” (priority 2008, published 2011) are described below.

The target in assay [1] is H-2 K^b (mouse; human), P61769.
The target in assay [2] is H-2 D^b (mouse; human), P61769.

In assay [1], VSWTMKIL (modifications not checked) [E451-458] returned an IC50 of 458 nM. Turning to FSLGVLGM (modifications not checked) [NS2A8-15], in assay [2], the IC50 is 1800 nM. Regarding RALIFILL (modifications not checked) [M60-67], the IC50 in assay [1] is 22 nM; in assay [2] it was over 2000 nM.

As for TAIANQATV (modifications not checked) [NS4B66-74], the IC50 was over 2000 nM in assay [1] and 1.3 nM in assay [2].

Consider LAVTIMAIL (modifications not checked) [NS2A145-153], for which the values for the half-maximal inhibitory concentration (IC50) in assay [1] and in assay [2] were over 2000 nM and 644 nM, respectively. Consider RMLINRFTM (modifications not checked) [NS5237-45], for which the IC50 in assay [1] was over 2000 nM; in assay [2], 21 nM. On to VAFLRFLTI (modifications not checked) [C51-59], for which the results for the half-inhibitory concentration (IC50) in assay [1] and in assay [2] were 20 nM and 1380 nM, respectively. With VAVSFVTLI (modifications not checked) [NS2A36-44], the IC50 in assay [1] was found to be 12 nM; in assay [2] it was 997 nM. MTMRCIGI (modifications not checked) [E-2-6] returned an IC50 in assay [1] of 1080 nM. This lies in the single-digit micromolar range. Consider GMLQGRGPL (modifications not checked) [C36-44], for which the IC50 came to 1340 nM in assay [1] and 820 nM in assay [2]. The matching figures for YSQVNPITL (modifications not checked) [NS4B99-107]: 1890 nM and 1.3 nM.
